Residue numbers refer to the chain shown, from its start.
B1: h_Nb2_G101Y: affinity-matured VHH of h_Nb2, SEQ ID NO: 92 (protein)
VHH: DVQLQESGGGLVQPGGSLRLSCAASGFTFGDRWMYWLRQAPGKGLEWVSSINPAGRSTYYADSVKGRFTISRDNAKNTLYLQMNSLKSEDTAVYYCTKDPGYYQKGQGTQVTVSS
modifications: h_Nb2_G101Y VHH
B2: h_Nb2: anti-human PD-L1 nanobody, VHH SEQ ID NO: 5 (protein)
VHH: B1 VHH with Y102G
modifications: h_Nb2 VHH
B3: h_Nb1: anti-human PD-L1 nanobody, VHH SEQ ID NO: 1 (protein)
VHH: DVQLQESGGGLVQPGGSLRLSCAASGFTFSSYAMSWVRQAPGKGLEWVSDINSGGDNTDYADSVKGRFTISRDNAKNTLYLQMNSLKPEDTAVYYCARGPKLCFSSWGQGTQVTVSS
modifications: h_Nb1 VHH
B4: KN035: positive control antibody (sequence from the IMGT database) (antibody, chains of the INN, looked up, V domains shown)
VH: QVQLVESGGGLVQPGGSLRLSCAASGKMSSRRCMAWFRQAPGKERERVAKLLTTSGSTYLADSVKGRFTISRDNSKNTVYLQMNSLRAEDTAVYYCAADSFEDPTCTLVTSSGAFQYWGQGTLVTVSS
B5: h_Nb5: anti-human PD-L1 nanobody, VHH SEQ ID NO: 13 (protein)
VHH: DVQLQESGGGAVQSGESLRLSCAASGRDLMFYDVAWFRQAPGKEREGVSYIRSSGTLTKYADSVKGRFTISRDNDKNTVSLQMNSLNPEDTAKYYCAARLQSATSHSDLREDEFNSWGQGTQVTVSS
modifications: h_Nb5 VHH
B6: h_Nb13: anti-human PD-L1 nanobody, VHH SEQ ID NO: 28 (protein)
VHH: DVQLQESGGGLVQPGGSLRLSCAASGSIFSINAMGWYRQAPGKSRELVAAITSGGSTNYADSVKGRFTISRDTAKNTVYLLMNSLEPEDTAVYYCNVERRRPPHYLSEYDFDWGQGTQVTVSS
modifications: h_Nb13 VHH
B7: h_Nb26: anti-human PD-L1 nanobody, VHH SEQ ID NO: 36 (protein)
VHH: B6 VHH with S25P, S30R, S44Q, K64Q, T73N, L81Q, E86K, L106Y, E108D
modifications: h_Nb26 VHH
B8: h_Nb12: anti-human PD-L1 nanobody, VHH SEQ ID NO: 24 (protein)
VHH: DVQLQESGGGLVQAGGSLRLSCAASGRTFSSRAMGWFRQAPGKEREFVAAISGSGRNTYYADSVKGRFTISRDNAKNSVNLQMNSLKPEDTAVYYCNAAGGGITIATMTQRTQYDYWGQGTQVTVSS
modifications: h_Nb12 VHH
B9: h_Nb6: anti-human PD-L1 nanobody, VHH SEQ ID NO: 17 (protein)
VHH: DVQLQESGGGLAQPGGSLRLSCAASGFTFSSYAMSWARQAPGKGLEWVAGIYRGGSDTYYADSVKGRFTISRDNTKNTLYLQMNSLKPEDTALYYCIQGWGLGYANYDYWGQGTQVTVSS
modifications: h_Nb6 VHH
B10: h_Nb4: anti-human PD-L1 nanobody, VHH SEQ ID NO: 9 (protein)
VHH: DVQLQESGGGLVQAGGSLRLSCAAPSRMFSGYTMGWYRQAPGKQRELVAQIANGGFTDYIDSVKGRFSISRDTVLNMMYLQMNSLKPEDTAVYYCNLVLVNGIPTRNWGQGTQVTVSS
modifications: h_Nb4 VHH
B11: h_Nb9: anti-human PD-L1 nanobody, VHH SEQ ID NO: 20 (protein)
VHH: DVQLQESGGGLVQPGGSLRLSCASSGSIFGLGVKGWYRQPPGNQREMVAQIISGGRISYADSVKGRFTISRDNAKNTVYLQMNSLKPEDTAVYYCNAWGPGQRNYWGRGTQVTVSS
modifications: h_Nb9 VHH

Molecular target: T1, PD-L1 (Homo sapiens, UniProt Q9NZQ7)
T1 sequence (Q9NZQ7 19-290): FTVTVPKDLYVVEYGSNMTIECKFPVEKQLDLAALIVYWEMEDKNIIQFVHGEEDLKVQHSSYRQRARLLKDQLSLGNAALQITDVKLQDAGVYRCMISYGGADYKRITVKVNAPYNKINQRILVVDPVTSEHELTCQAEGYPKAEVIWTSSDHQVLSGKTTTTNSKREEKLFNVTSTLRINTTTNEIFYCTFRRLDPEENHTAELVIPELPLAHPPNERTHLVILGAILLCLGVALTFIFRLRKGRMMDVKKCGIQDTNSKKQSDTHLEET
Assay: Affinity of affinity-matured nanobodies to PD-L1 compared with the original antibodies
Assay type: binding
Details: relative to original antibody (h_Nb1 VHH or h_Nb2 VHH)
Text: The full-length amino acid sequences of preferred nanobodies that specifically bind to human PD-L1 in the above examples (SEQ ID No. 1 and SEQ ID No. 5) were annotated with the CCG method for the antibody CDR and FR regions. Suitable FR and CDR region templates were selected by antibody homology modeling to construct and select the optimal nanobody three-dimensional protein structure. The crystal structure of human PD-L1 protein was obtained from the PDB protein database. A preferred candidate library of PD-L1 nanobody-PD-L1 protein complex structures was obtained by protein complex homology modeling and protein-protein molecular docking methods. Based on the PD-1/PD-L1 in vitro competitive binding characteristics of the preferred antibodies, a suitable docking angle was selected to determine the optimal docking conformation. The key interaction sites of the selected nanobody-PD-L1 protein complex structure were analyzed, with attention paid to Van Der Waals forces, hydrogen bonds, ionic bonds, hydrophobic interactions, etc. The pairs of action sites with low affinity energy values between the nanobodies and the action sites on PD-L1 were focused on as affinity maturation point mutation objects. […] Finally, the affinity maturation scheme of the CDR regions of the preferred antibodies was determined, and the sequences of the antibodies after affinity maturation were SEQ ID NO. […]

Molecule	Improved value of relative affinity
B1	8.4837

Molecular target: T2, human PD-1/PD-L1 (Homo sapiens, UniProt Q9NZQ7)
T2 construct: expressed in transfected cells; host or cells: HEK293T
T2 sequence (Q9NZQ7 19-290): as above
Assay: IC50 of blocking human PD-1/PD-L1 binding on HEK293T/hPD-L1 cells, flow cytometry
Details: PD-1/PD-L1 blocking, FIG. 3
Protocol: The cell samples were prepared by digesting the stably transfected cell line HEK293T/hPD-L1. Different concentrations of nanobodies h_Nb1 or h_Nb2 or positive control antibody KN035 (sequence from the IMGT database) and human PD-1-his protein (concentration of 1 μg/mL) were added to the samples. After incubation and centrifugation, anti-his-APC was used as the secondary antibody for incubation and staining; and then the flow cytometer was used for detection to obtain the IC50 value of the candidate nanobody in blocking the binding of human PD-1/PD-L1, as shown in FIG. 3.

Molecule	in vitro activity compared with KN035
B2	superior to that of KNO35

Same assay, conditions: human PD-1-his 1 μg/mL, FIG. 3

Molecule	IC50 activity in blocking human PD-1/PD-L1 binding, compared with KN035
B3	comparable to those of the positive control antibody KN035
B2	comparable to those of the positive control antibody KN035

System: CT26/hPD-L1 tumor
Assay: In vivo anti-tumor activity in CT26/hPD-L1 tumor model
Parameters: species or system BALB/c mice with dual humanization of PD-1/PD-L1
Details: 10 mg/kg intraperitoneal, 6 administrations D0-D16, tumors dissected on Day 17
Protocol: To further evaluate the in vivo anti-tumor activity of anti-human PD-L1 and TLR7 dual-targeting nanobody conjugates, the CT26/hPD-L1 tumor model established by using BALB/c mice with dual humanization of PD-1/PD-L1 targets was used. When the average tumor volume reached 80-100 mm^3, the mice were randomly divided into 6 groups according to the tumor volume, with 6 mice in each group; the day of grouping was defined as DO, and the drugs were administered on DO, D3, D7, D10, D13, and D16, for a total of 6 times, with a dose of 10 mg/kg by intraperitoneal administration. The tumor size was measured 2-3 times a week, and the tumor growth curve was plotted.

Molecule	tumor inhibition rate
B4	65.83%
B3	81.17%
B2	85.14%

Molecular target: T2, human PD-1/PD-L1
Assay: Blocking of human PD-1/PD-L1 binding on HEK293T/hPD-L1 cells, single concentration, flow cytometry
Details: nanobody 10 μg/ml, human PD-1-his 1 μg/mL, FIG. 2
Protocol: The stably transfected cell line HEK293T/hPD-L1 was digested and centrifuged to remove the supernatant. The cells were washed once with PBS and the cell density was adjusted to 2.5×10^6 cells/mL. 100 μL of cell suspension was added to each cell sample, i.e., 2.5×10^5 cells/sample. The human PD-1-his protein (at a concentration of 1 μg/mL) and candidate anti-human PD-L1 nanobodies (at a concentration of 10 μg/ml) were added to the samples respectively. The abtained samples were incubated in a refrigerator at 4° C. for 20 min and centrifuged to remove the supernatant. The obtained samples were washed once with PBS. The diluted antibody anti-his-APC was used as the secondary antibody to resuspend the above cells. The cells were incubated in a refrigerator at 4° C. for 20 min and centrifuged to remove the supernatant. The cells were washed twice with PBS, transferred to a flow tube; and detected by flow cytometry.

Molecule	activity in blocking human PD-1/PD-L1 binding
B3	effectively block
B2	effectively block

Molecular target: T1, PD-L1
Assay: Binding of candidate nanobodies to human PD-L1 on HEK293T/hPD-L1 cells, flow cytometry
Parameters: expressed in transfected cells; host or cells: HEK293T
Details: nanobody 10 μg/ml, FIG. 1
Protocol: The stably transfected cell line HEK293T/hPD-L1 was digested and centrifuged, and the supernatant was removed. The cells were washed once with PBS and the cell density was adjusted to 2.5×10^6 cells/mL. 100 μL of cell suspension was added to each cell sample, i.e., 2.5×10^5 cells/sample. Different anti-human PD-L1 candidate nanobodies (at a concentration of 10 μg/ml) were added into the samples. The samples were incubated in a 4° C. refrigerator for 20 min and then centrifuged to remove the supernatant, and washed once with PBS. The diluted antibody anti-human IgG Fc (FITC) was used as a secondary antibody to resuspend the above cells. The abtained samples were incubated in a 4° C. refrigerator for 20 min and centrifuged to remove the supernatant. The cells were washed twice with PBS, transferred to a flow tube; and detected on a flow cytometer to obtain the binding activity of the candidate nanobody with human PD-L1, as shown in FIG. 1.

Molecule	binding activity to human PD-L1
B5	good binding activity
B6	good binding activity
B7	good binding activity
B8	good binding activity
B9	good binding activity
B10	good binding activity
B3	good binding activity
B2	good binding activity
B11	good binding activity

Source: US20250197503A1, “ANTI-HUMAN PD-Ll AND TLR7 DOUBLE-TARGETING NANOBODY CONJUGATE DRUG AND USE THEREOF IN RESISTING TUMOR” (SHANGHAI INSTITUTE OF MATERIA MEDICA , CHINESE ACADEMY OF …, priority 2022, published 2025)
